Patent US20240287172A1, “PROTEIN BINDERS TO IRHOM2 EPITOPES” (SCIRHOM GMBH, priority 2019, published 2024)
Residue numbers refer to the chain shown, from its start. One block for each binder: values may come before it.

How the values were obtained:
hiR2-FL-K536A-T7 (human) = target: T1, hiR2-FL-K536A-T7 (human) (UniProt Q6PJF5); assay: FACS on MEF-DKO cells expressing the variant, 3 µg/ml antibody
T1 sequence: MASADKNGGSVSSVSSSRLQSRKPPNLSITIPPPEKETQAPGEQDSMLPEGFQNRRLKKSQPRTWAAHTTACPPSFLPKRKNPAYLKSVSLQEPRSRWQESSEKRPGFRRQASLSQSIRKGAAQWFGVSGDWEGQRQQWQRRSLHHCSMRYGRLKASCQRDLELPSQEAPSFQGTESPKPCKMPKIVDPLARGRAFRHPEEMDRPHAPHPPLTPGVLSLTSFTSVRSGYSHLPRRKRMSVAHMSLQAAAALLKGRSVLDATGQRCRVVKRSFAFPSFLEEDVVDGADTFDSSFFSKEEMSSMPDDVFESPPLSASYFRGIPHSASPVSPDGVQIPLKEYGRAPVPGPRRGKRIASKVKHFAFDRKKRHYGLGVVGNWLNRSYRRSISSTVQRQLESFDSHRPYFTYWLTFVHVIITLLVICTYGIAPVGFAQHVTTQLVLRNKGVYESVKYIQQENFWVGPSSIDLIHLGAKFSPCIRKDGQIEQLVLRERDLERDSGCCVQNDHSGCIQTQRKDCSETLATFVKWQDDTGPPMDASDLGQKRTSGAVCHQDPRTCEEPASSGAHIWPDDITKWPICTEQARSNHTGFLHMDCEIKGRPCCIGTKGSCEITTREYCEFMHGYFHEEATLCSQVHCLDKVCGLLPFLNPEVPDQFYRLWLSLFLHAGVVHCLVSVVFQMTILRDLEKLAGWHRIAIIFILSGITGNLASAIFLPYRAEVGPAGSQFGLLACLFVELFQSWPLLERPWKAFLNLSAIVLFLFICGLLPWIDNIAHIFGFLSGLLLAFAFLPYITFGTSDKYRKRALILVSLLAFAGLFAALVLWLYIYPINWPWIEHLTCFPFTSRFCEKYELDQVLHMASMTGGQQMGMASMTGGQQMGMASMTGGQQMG

hiR2-FL-H505R-T7 (human) = target: T2, hiR2-FL-H505R-T7 (human) (UniProt Q6PJF5); assay: FACS, MEF-DKO cells, 3 µg/ml
T2 sequence: T1 sequence with H505R, A536K

loss of binding vs wild type (hiR2-FL-K536A-T7 (human)): > 95%
B1: antibody 34 (antibody, V domains shown)
VH: QVTLKESGPGILQPSQTLSLTCSFSGFSLSTFSLGVGWIRQSSGKGLEWLAHIWWDDEKYYNPALKSRLTISKDTSKNQVFLKIANVDAADTATYYCARAYYSKSYYALDYWGQGTSVTVSS
VL: DIQMTQSPSSLSASLGERVSLTCRASQEISGYLSWLQQKPDGTIKRLIYAASTLDSGVPKRFSGSRSGSDYSLAISSLESEDFADYYCLQYANFPFTFGSGTKLEIK

loss of binding vs wild type (hiR2-FL-K536A-T7 (human)): > 95%
B2: antibody 22 (antibody, V domains shown)
VH: QVTLKESGPGILQPSQTLSLTCSFSGFSLSTFGMGVGWIRQPSGKGLEWLAHIWWDDEKYYNSALKSRLTISKATSKNQVFLKIANVDTADTATYYCARISNYGSNYWYFNVWGTGTTVTVSS
VL: QVVLTQSPALMSASPGEKVTMTCSAGSSVSYMYWYQQKPGSSPRVLIYDTSNLASGVPARFTGSGSGTSYSLTISRMEAEDAATYYCQQWNSYPLTFGAGTKLELK

loss of binding vs wild type (hiR2-FL-K536A-T7 (human)): > 95%
B3: antibody 42 (antibody, V domains shown)
VH: B2 VH with F24L, M34R, S63P, A74D, K83R, S101Q, N111D
VL: LIVLTQSPAIMSASPGEKVTMTCGATSRISYMFWYQQKPGSSPRVLIYDTSNLASGVPVRFSGSGSGTSYSLTISRVEAEDVATYYCQQWNSYPLTFGAGTKLELK

loss of binding vs wild type (hiR2-FL-K536A-T7 (human)): > 95%
B4: antibody 44 (antibody, V domains shown)
VH: B2 VH with G44E, E58D, S63P, A74D, V80I, A85T, D91E, A98S, S101G, N111D
VL: B2 VL with V2I, L10V, S24T, G26S, S30Y, K38T, V45L, A59V, T62S, S92T

loss of binding vs wild type (hiR2-FL-H505R-T7 (human)): > 60%
B5: antibody 48 (antibody, V domains shown)
VH: QVQLQQSGTELVRPGTSVKVSCKASGYAFTNYLIEWVKQRPGQGLEWIGVINPGSGFTKYNEKFKGKATLTADKSSSTVYMHLSSLTSEDSAVYFCARGLYRAMDYWGQGTSVTVSS
VL: DIQMTQSPASQSASLGESVTITCLASQTIATWLAWYQQKPGKSPQLLIYGATTLADGVPSRFSGGGSGTKFSFKISSLQAEDFVSYYCQQLYSTPYTFGGGTKLEIK
